The text below walks through data of patent publication US20190218553, “VON WILLEBRAND FACTOR (VWF)-TARGETING AGENTS AND METHODS OF USING THE SAME” (DUKE UNIVERSITY, published 2019).

Data set [1] deals with von Willebrand factor (VWF) in whole blood (Homo sapiens, UniProt P04275 P04275:764-2813). Nature of the data set: inhibition; platelet adhesion to collagen under high shear, human whole blood; text gives 72.6. The conditions noted are these: protein: extract; tags: endogenous, hirudin-anticoagulated human whole blood. How it is done:
The Venaflux™ microfluidics system (Cellix, Dublin, Ireland) measures platelet adhesion on a collagen surface. Human blood was collected into hirudin tubes from healthy volunteers by vena puncture. An aliquot containing 300 μl of whole blood treated with aptamer or platelet-binding buffer alone was flowed through collagen-coated micro-channels at 60 dynes for 3 minutes. Channels were then rinsed with saline for 3 minutes to wash away RBC and unbound platelets. Venaflux imaging software and Image Pro Plus were used to image bound platelets and calculate covered surface area. Aptamer was incubated at 95° C. for 3 minutes, placed on ice for 3 minutes, then incubated for 10 minutes at room temperature. After cooling, aptamer was kept on ice until use. Total surface area covered by bound platelets in treated blood was expressed as a percentage of total coverage in negative control blood. Statistical significance was determined by analysis of variance; IC₅₀ of the aptamer was calculated using a fitted linear regression curve.
To evaluate the inhibitory effect of the aptamer on platelet adhesion, human whole blood samples were treated with aptamer starting at 900 nmol/L with 2-fold dilutions to 14 nmol/L and tested by measuring platelet adhesion under high-shear stress. The aptamer prevented platelet adhesion to the collagen surface in a dose-dependent manner (FIG. 20-22).

Data set [2] addresses T1, von Willebrand factor (VWF) (Homo sapiens, UniProt P04275 P04275:764-2813). Kind of data set: filter; Bmax 56%; 2 mM CaCl2, 37 C. The conditions noted are these: tags: factor VIII free, Haematologic Technologies Inc. The protocol: (§1) Affinity constants (Kd values) were determined using double-filter nitrocellulose filter binding assays (Rusconi et al, Thromb. Haemost. $4:841-848 (2000)). All binding studies were performed in binding buffer F (20 mM HEPES, pH 7.4, 150 mM NaCl, 2 mM CaCl₂, and 0.01% BSA) at 37° C. Human purified VWF (factor VIII free) was purchased from Haematologic Technologies Inc. (Essex Junction, Vt.) and used in the double-filter nitrocellulose filter binding assay to determine the Kd of the aptamers. Briefly, RNA were end-labeled at the 5′ end with T4 polynucleotide kinase (New England Biolabs, Beverly, Mass.) and [γ³²P] ATP (Amersham Pharmacia Biotech, Piscataway, N.J.) (Fitzwater and Polisky, Methods Enzymol. 267:275-301 (1996)). End-labeled RNA was diluted in binding buffer F, heat denatured at 65° C. for 5 minutes, and subsequently equilibrated at 37° C. Direct binding was performed by incubating trace ³²P-RNA with varying concentrations of VWF protein in binding buffer F at 37° C. for 5 min. The fraction of the nucleic acid-protein complex which bound to the nitrocellulose membrane was quantified with a phosphorimager (Molecular Dynamics, Sunnyvale, Calif.). Non-specific binding of the radiolabeled nucleic acid was subtracted out of the binding such that only specific binding remained (Wong and Lohman, Proc. Natl. Acad. Sci. USA 90:5428-5432 (1993)).

For data set [3], the target named is T1, von Willebrand factor (VWF). Kind of data set: filter; Bmax 60%; 2 mM CaCl2, 37 C. The following applies: tags: factor VIII free, Haematologic Technologies Inc; label: 5'-32P. How it is done:
as §1

Data set [4] shares this target. Nature of the data set: filter; Bmax 75%; 2 mM CaCl2, 37 C. The following applies: tags: factor VIII free, Haematologic Technologies Inc; label: 5'-32P. How it is done: as §1
The target is the same in data set [5]. Nature of the data set: filter; Bmax 90%; 2 mM CaCl2, 37 C. The following applies: tags: factor VIII free human purified VWF, Haematologic Technologies Inc; label: 5'-32P. The protocol:
as §1

Data set [6] has the same target. Kind of data set: filter; Bmax 84%; 2 mM CaCl2, 37 C. The following applies: tags: factor VIII free, Haematologic Technologies Inc; label: 5'-32P. The protocol: as §1
The target is the same in data set [7]. Nature of the data set: filter; Bmax 10%; 2 mM CaCl2, 37 C. The following applies: tags: factor VIII free, Haematologic Technologies Inc; label: 5'-32P. The protocol:
as §1

Data set [8] shares this target. Kind of data set: filter; Bmax 52%; 2 mM CaCl2, 37 C. The following applies: tags: factor VIII free, Haematologic Technologies Inc; label: 5'-32P. The protocol:
as §1

Data set [9] has the same target. Nature of the data set: filter; Bmax 55%; 2 mM CaCl2, 37 C. The following applies: tags: factor VIII free, Haematologic Technologies Inc; label: 5'-32P. The protocol: as §1
For data set [10] the target is unchanged. Kind of data set: filter; Bmax 83%; 2 mM CaCl2, 37 C. The conditions noted are these: tags: factor VIII free, Haematologic Technologies Inc; label: 5'-32P. How it is done: as §1
Data set [11] has the same target. Nature of the data set: filter; Bmax 62%; 2 mM CaCl2, 37 C. The following applies: tags: factor VIII free, Haematologic Technologies Inc; label: 5'-32P. How it is done:
as §1

Data set [12] has the same target. Nature of the data set: filter; Bmax 79%; 2 mM CaCl2, 37 C. The following applies: tags: factor VIII free, Haematologic Technologies Inc; label: 5'-32P. The protocol: as §1
For data set [13] the target is unchanged. Nature of the data set: filter; Bmax 59%; 2 mM CaCl2, 37 C. The conditions noted are these: tags: factor VIII free, Haematologic Technologies Inc; label: 5'-32P. How it is done: as §1

B1: T79 vrt7 (DTRI-031) (ssRNA)
RNA: ACGAACUGCCCUCGAUCGACGCACAGACGUUUUUU
modifications: mAmCmGmAmAmCmUmGfCfCfCmUmCmGmAmUmCmGmAfCfGfCmAmCmAmGmAmCmGmUmUmUmUmUmU-idT
As to B1, in [1], the 50% inhibitory concentration (IC50) was 72.5 nM. This molecule yielded a dissociation constant (Kd) in data set [2] of 11.2 nM.

B2: DTRI-034 (ssRNA)
RNA: ACGAACUGCCCUCGUAAGACGCACAGACGUUUUUU
modifications: mAmCmGmAmAmCmUmGfCfCfCmUmCmGmUmAmAmGmAfCfGfCmAmCmAmGmAmCmGmUmUmUmUmUmUidT
B2 had a Kd in [3] of 2.8 nM.

B3: T79 vrt4 (ssRNA)
RNA: ACGAACUGCCCUCGAUCGACGCACAGACGUUUUUU
modifications: mAmCmGmAmAmCmUmGfCfCfCmUmCmGmAmUmCmGmAfCrGfCmAmCmAmGmAmCmGmUmUmUmUmUmU-idT
Turning to B3, binding in data set [4] was put at a Kd of 13 nM. In other words, the double-digit nanomolar range.

B4: T49 (ssRNA)
RNA: ACGAACUGCCCUCGAUUAUUCGACGCACAGACGU
modifications: 2'-F C and U; 2'-OH A and G; 3' idT
In [3], B4 registered a Kd of 10.5 nM. In other words, the double-digit nanomolar range.

B5: T95 vrt1 (ssRNA)
RNA: ACGAACUGCCCUCUUUUUUUUGACGCACAGACGU
modifications: 2'-F C2,U7,C9,C10,C11,U12,C24,C26,C32,U34; ribo A1,G3,G8,A23,G25,A27,G33; rest 2'-OMe; 3' idT
On to B5, for which the Kd in [5] turned out to be 0.9 nM.

B6: T59 vrt7 (ssRNA)
RNA: ACGAACUGCCCUCGAUCGACGCACAGACGU
modifications: mAfCmGmAmAmCfUrGfCfCfCfUmCmGmAmUmCmGrAfCrGfCrAmCmAmGmAfCmGfU-idT
As to B6, binding in data set [6] was characterised by a dissociation constant (Kd) of 0.8 nM.

B7: T63 (ssRNA)
RNA: ACGAACGCCCUCGAUUAUUCGACGCACGACGU
modifications: 2'-F C and U; 2'-OH A and G; 3' idT
In the case of B7, in [7], the Kd was determined as 83 nM.

B8: T69 (ssRNA)
RNA: ACGAACUGCCCUGAUUAUUCACGCACAGACGU
modifications: 2'-F C and U; 2'-OH A and G; 3' idT
In [8], B8 registered a Kd of 26 nM.

B9: T94 vrt1 (ssRNA)
RNA: ACGAACUGCCCUCUUUUUUGACGCACAGACGU
modifications: 2'-F C2,U7,C9,C10,C11,U12,C22,C24,C30,U32; ribo A1,G3,G8,A21,G23,A25,G31; rest 2'-OMe; 3' idT
B9 showed a Kd in data set [5] of 0.9 nM.

B10: T38 (ssRNA)
RNA: ACGAACUGCCCUCGCACUUUCAUGUGCGACGCACAGACGU
modifications: 2'-F C and U; 2'-OH A and G; 3' idT
In data set [9], B10 had a Kd of 9.6 nM.

B11: T21 (ssRNA)
RNA: GGGAGGUCAGCUACUUUCAUGUUGCUGACGCACAGACGACUCGCUG
modifications: 2'-F C and U; 2'-OH A and G
In data set [7], B11 showed a Kd of 26 nM.

B12: T59 vrt18 (ssRNA)
RNA: ACGAACUGCCCUCGAUCGACGCACAGACGU
modifications: mAmCmGmAmAmCmUrGfCfCfCmUmCmGmAmUmCmGmAfCrGfCmAmCmAmGmAmCmGfU-idT
Take B12: the Kd in data set [10] is 5.7 nM. That is a single-digit nanomolar value.

B13: T25 vrt10 (ssRNA)
RNA: ACGAACUGCCCUCAGCUACUUUCAUGUUGCUGACGCACAGACGU
modifications: rAfCrGrArAfCfUrGfCfCfCfUmCmAmGmCmUmAfCfUfUfUfCrAfUrGmUmUmGmCmUmGrAfCrGfCrAfCrArGrAfCrGfU-idT
Molecule B13 came in with a Kd in [11] of 5.7 nM.

B14: T25 vrt13 (ssRNA)
RNA: ACGAACUGCCCUCAGCUACUUUCAUGUUGCUGACGCACAGACGU
modifications: rAfCrGmAmAmCfUrGfCfCfCfUmCmAmGmCmUmAmCmUmUmUmCmAmUmGmUmUmGmCmUmGrAfCrGfCrAmCmAmGmAfCrGfU-idT
Regarding B14, in data set [12], the Kd amounted to 1.9 nM.

B15: T25 vrt21 (ssRNA)
RNA: ACGAACUGCCCUCAGCUACUUUCAUGUUGCUGACGCACAGACGU
modifications: rAfCrGrArAfCfUrGfCfCfCmUfCrArGfCfUrAfCfUfUfUfCrAfUrGfUfUrGfCfUrGmAfCrGfCrAfCrArGrAfCrGfU-idT
On to B15, for which the Kd in data set [11] was 17 nM.

B16: T25 vrt12 (ssRNA)
RNA: ACGAACUGCCCUCAGCUACUUUCAUGUUGCUGACGCACAGACGU
modifications: rAfCrGrArAfCfUrGfCfCfCfUfCrArGfCfUrAmCmUmUmUmCmAmUmGfUfUrGfCfUrGrAfCrGfCrAfCrArGrAfCrGfU-idT
Consider B16, for which, in data set [13], the Kd is 7.1 nM.
